Primed or numbered codes have the meaning given here. No end group written: not given here. *: point of attachment. Mca = COc1ccc2c(CC(=O)*)cc(=O)oc2c1; Dnp′ = not defined here

Data on six molecules can be found in PMC6858450.

The subject of data set [1] is securin-separase fusion C2029S (catalytically dead) (Homo sapiens). Nature of the data set: fluorescence polarization. To be noted: 25 mM HEPES pH 7.8, 50 mM KCl, 5 mM MgCl2, 0.5 mM TCEP; 1 nM DNA; 30 min at 25 °C. (In fluorescence polarisation assays a small probe gives low polarisation when free and higher when bound to something large.)
In data set [2] the target is active (apo, securin-free) human separase (human) (UniProt Q14674).
Sequence of UniProt Q14674 (Q14674 whole entry S1126A): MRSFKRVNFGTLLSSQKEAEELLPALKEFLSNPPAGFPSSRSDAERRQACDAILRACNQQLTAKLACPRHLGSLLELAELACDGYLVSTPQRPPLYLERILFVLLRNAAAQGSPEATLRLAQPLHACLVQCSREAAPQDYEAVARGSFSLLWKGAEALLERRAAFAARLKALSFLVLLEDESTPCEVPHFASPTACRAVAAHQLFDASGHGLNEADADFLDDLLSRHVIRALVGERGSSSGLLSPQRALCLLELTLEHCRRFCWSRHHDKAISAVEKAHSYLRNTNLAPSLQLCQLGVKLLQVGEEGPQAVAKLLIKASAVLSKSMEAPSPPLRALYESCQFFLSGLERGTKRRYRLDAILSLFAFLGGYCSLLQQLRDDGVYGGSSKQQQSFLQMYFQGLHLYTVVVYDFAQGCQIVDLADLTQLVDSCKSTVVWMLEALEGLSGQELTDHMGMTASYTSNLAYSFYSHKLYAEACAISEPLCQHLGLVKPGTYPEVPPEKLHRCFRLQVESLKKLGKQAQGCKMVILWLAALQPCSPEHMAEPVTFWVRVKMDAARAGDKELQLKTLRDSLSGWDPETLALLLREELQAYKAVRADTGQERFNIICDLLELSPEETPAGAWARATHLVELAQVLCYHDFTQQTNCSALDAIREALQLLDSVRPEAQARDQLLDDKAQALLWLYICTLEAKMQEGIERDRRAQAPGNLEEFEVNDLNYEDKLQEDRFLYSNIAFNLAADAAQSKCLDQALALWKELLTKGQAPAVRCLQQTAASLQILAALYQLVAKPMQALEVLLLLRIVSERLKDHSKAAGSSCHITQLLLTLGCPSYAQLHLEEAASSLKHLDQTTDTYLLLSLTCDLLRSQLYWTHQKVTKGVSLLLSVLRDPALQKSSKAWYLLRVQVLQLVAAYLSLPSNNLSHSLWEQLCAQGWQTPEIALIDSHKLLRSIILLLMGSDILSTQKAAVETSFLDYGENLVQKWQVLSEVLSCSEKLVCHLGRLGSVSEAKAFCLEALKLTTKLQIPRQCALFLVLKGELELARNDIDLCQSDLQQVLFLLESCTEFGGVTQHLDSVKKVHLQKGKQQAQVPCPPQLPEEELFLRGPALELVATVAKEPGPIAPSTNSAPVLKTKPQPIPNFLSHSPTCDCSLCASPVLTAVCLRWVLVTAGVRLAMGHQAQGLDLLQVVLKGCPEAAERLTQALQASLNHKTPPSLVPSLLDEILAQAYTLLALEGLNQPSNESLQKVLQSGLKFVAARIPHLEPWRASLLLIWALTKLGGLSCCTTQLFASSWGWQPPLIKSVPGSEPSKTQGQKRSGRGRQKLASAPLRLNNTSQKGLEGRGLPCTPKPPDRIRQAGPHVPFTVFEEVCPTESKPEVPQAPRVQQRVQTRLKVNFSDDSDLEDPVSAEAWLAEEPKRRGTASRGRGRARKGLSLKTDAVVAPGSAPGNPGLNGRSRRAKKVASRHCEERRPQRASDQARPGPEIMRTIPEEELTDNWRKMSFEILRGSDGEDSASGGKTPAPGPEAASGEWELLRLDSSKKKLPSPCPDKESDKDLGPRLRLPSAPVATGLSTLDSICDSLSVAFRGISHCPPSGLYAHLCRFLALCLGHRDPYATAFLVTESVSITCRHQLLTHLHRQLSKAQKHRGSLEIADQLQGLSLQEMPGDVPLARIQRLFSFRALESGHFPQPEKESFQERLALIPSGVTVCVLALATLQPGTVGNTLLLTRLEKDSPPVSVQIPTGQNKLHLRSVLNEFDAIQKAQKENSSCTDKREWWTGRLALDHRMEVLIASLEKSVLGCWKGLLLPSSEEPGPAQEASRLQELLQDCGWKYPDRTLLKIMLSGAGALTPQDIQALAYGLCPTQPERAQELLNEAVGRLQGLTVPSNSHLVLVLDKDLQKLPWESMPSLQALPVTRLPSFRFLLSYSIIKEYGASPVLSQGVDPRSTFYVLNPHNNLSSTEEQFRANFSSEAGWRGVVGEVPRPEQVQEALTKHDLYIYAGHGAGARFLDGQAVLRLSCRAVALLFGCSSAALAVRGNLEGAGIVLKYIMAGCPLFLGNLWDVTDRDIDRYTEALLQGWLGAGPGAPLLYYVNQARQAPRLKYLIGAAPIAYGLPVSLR
Data set [3] has the same target. This is another data set of the same source.
For data set [4] the target is unchanged. The source holds these as a separate data set.

25 bp displayed a Kd in data set [1] of 800 nM. The same measure, in the same setting: the figure for 50 bp is 300 nM; for 50 bp 2 it is 220 nM.

B1: separase biosensor H2B-mRuby2-Scc1(142-467)-mNeonGreen, ^255Leu-Pro to Ala-Ala (domain or fragment)
chain: EITMREEVGNISILQENDFGDFGMDDREIMREGSAFEDDDMLVSTTTSNLLLESEQSTSNLNEKINHLEYEDQYKDDNFGEGNDGGILDDKLISNNDGGIFDDPPALSEAGVMAAEQPAHDDMDEDDNVSMGGPDSPDSVDPVEPMPTMTDQTTLVPNEEEAFALEPIDITVKETKAKRKRKLIVDSVKELDSKTIRAQLSDYSDIVTTLDLAPPTKKLMMWKETGGVEKLFSLPAQPLWNNRLLKLFTRCLTPLVPEDLRKRRKGGEADNLDEFLKEFENPEVPREDQQQQHQQRDVIDEPIIEEPSRLQESVMEASRTNIDESA
The molecule B1 displayed a cleavage of the separase biosensor in U2OS cells in anaphase (loss of GFP relative to RFP on chromosomes); the enzyme is the endogenous separase of the cells in data set [2] of 50%. With Mca-DDREIMREGS-{Dnp′} [Mca-…-Dnp, Scc1 site 1 substrate peptide], the KM of cleavage of the FRET dye-quencher peptide by purified active separase (Michaelis-Menten analysis) in data set [3] was determined as 70 µM.

B2: securin^RE fragment (aa 93-150) (domain or fragment)
chain: MTEKTVKAKSSVPASDDAYPEIEKFREFNPLDFESFDLPEEHQIAHLPLSGVPLMILD
modifications: also: 35S-methionine-labeled
B2 returned a cleavage of the 35S-labeled securin^RE fragment (93-150) by separase in vitro (SDS-PAGE, Phosphorimaging) in data set [4] of 50%.

One may read the Kd as the concentration at which binding is half-saturated.
